± gives the uncertainty stated by the source.
B1: Lysine-specific demethylase 2B, residues 656 to 722; numbered along this chain, Q8NHM5 (parent)
chain: LPHTAVCLVCGEAGKEDTVEEEEGKFNLMLMECSICNEIIHPGCLKIKESEGVVNDELPNCWECPKC

Variants of: B1
Test: abundance fitness (aPCA) (normalised: wild type 0, dead -1); higher = more abundant; growth selection in yeast, the domain comes from the species named
Details: Homo sapiens

| Variant | abundance fitness |
| --- | --- |
| T18D | -0.527 ± 0.23 |
| T18Y | -0.427 ± 0.29 |
| T18I | -0.14 ± 0.11 |
| V54C | -0.275 ± 0.16 |
| V54Q | 0.135 ± 0.49 |
| V54G | -0.182 ± 0.08 |
| V54E | 0.024 ± 0.12 |
| V54R | 0.042 ± 0.14 |
| V54W | -0.124 ± 0.21 |
| E22C | -0.235 ± 0.23 |
| E22Y | -0.291 ± 0.42 |
| E22Q | 0.086 ± 0.12 |
| E22T | 0.171 ± 0.11 |
| E22L | -0.011 ± 0.066 |
| E22P | -0.449 ± 0.23 |
| E22W | -0.308 ± 0.12 |
| E22M | 0.113 ± 0.1 |
| E22G | -0.009 ± 0.057 |
| A13I | 0.169 ± 0.17 |
| A13K | 0.175 ± 0.14 |
| A13W | -0.228 ± 0.088 |

| Variant | abundance fitness |
| --- | --- |
| A13Q | 0.471 ± 0.11 |
| S34A | -0.273 ± 0.13 |
| S34V | -0.078 ± 0.096 |
| S34G | -0.106 ± 0.082 |
| S34L | -0.36 ± 0.14 |
| S34E | -0.469 ± 0.21 |
| S34I | -0.058 ± 0.1 |
| S34P | -0.456 ± 0.16 |
| H3N | 0.177 ± 0.16 |
| H3Y | -0.328 ± 0.25 |
| H3L | 0.048 ± 0.074 |
| E21L | -0.284 ± 0.082 |
| E21A | 0.107 ± 0.1 |
| E21C | -0.068 ± 0.17 |
| E21F | -0.559 ± 0.48 |
| E21V | 0.06 ± 0.11 |
| E21M | -0.062 ± 0.12 |
| E21D | -0.028 ± 0.22 |
| E21I | -0.566 ± 0.3 |
| E38W | -0.163 ± 0.11 |
| E38F | -0.69 ± 0.29 |

| Variant | abundance fitness |
| --- | --- |
| E38V | -0.13 ± 0.073 |
| E38H | -0.566 ± 0.44 |
| E38A | -0.356 ± 0.093 |
| E38G | -0.286 ± 0.063 |
| E38T | -0.57 ± 0.2 |
| L1F | 0.761 ± 0.073 |
| I39V | 0.013 ± 0.074 |
| I39M | 0.119 ± 0.11 |
| I39H | 0.245 ± 0.16 |
| I39Q | 0.257 ± 0.089 |
| I39G | -0.141 ± 0.067 |
| I39T | -0.053 ± 0.13 |
| I39A | -0.029 ± 0.068 |
| I39N | 0.056 ± 0.15 |
| G52V | 0.018 ± 0.095 |
| E20L | -0.146 ± 0.074 |
| E20A | -0.046 ± 0.095 |
| E20R | 0.033 ± 0.07 |
| E20V | -0.03 ± 0.08 |
| E20Q | -0.126 ± 0.12 |
| E20G | 0.035 ± 0.098 |

| Variant | abundance fitness |
| --- | --- |
| E20C | -0.105 ± 0.063 |
| M31I | -0.238 ± 0.11 |
| M31H | -0.25 ± 0.12 |
| M31K | -0.093 ± 0.098 |
| M31C | -0.219 ± 0.22 |
| M31G | -0.485 ± 0.16 |
| M31P | -0.847 ± 0.15 |
| V19F | 0.151 ± 0.21 |
| V19E | -0.469 ± 0.13 |
| V19Y | -0.295 ± 0.18 |
| V19W | -0.429 ± 0.17 |
| V19G | -0.193 ± 0.078 |
| V19A | -0.049 ± 0.089 |
| K46W | -0.148 ± 0.098 |
| K46E | 0.206 ± 0.14 |
| K46A | -0.01 ± 0.1 |
| K46G | 0.205 ± 0.078 |
| P59S | -0.071 ± 0.11 |
| P59R | 0.015 ± 0.077 |
| P59E | 0.249 ± 0.17 |

From the Human Domainome abundance scans (Beltran et al. 2025)
